Data taken from PMC5344332, “A new mode of DNA binding distinguishes Capicua from other HMG-box factors and explains its mutation patterns in cancer”.

Assays:
[1] = molecular target: T1, Hs CIC HMG-C1-His (Homo sapiens, UniProt Q96RK0-2;Q96RK0-2 188-288;1451-1527); test: EMSA; similar affinity to longer probes; 60 mM Hepes pH 7.9, 20 mM Tris-HCl pH 7.9, 300 mM KCl, 5 mM EDTA, 5 mM DTT, 12% glycerol, 1 ug poly(dI-dC), 1 ug BSA, ~1 ng probe in 20 ul; 20 min on ice; 5% native PAGE in 0.5X TBE at 4 C; settings: protein: recombinant; tags: His; copies: 1;1; label: 32P
T1 sequence (Q96RK0 1097-1197, chain 1 of 2): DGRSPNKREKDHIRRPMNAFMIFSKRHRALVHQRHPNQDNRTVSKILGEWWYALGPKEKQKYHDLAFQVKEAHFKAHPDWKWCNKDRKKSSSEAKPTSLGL
T1 sequence (Q96RK0 2360-2436, chain 2 of 2): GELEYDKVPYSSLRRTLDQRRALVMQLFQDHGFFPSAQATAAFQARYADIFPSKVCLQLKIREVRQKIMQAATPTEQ

[2] = molecular target: T1, Hs CIC HMG-C1-His; test: EMSA; 60 mM Hepes pH 7.9, 20 mM Tris-HCl pH 7.9, 300 mM KCl, 5 mM EDTA, 5 mM DTT, 12% glycerol, 1 ug poly(dI-dC), 1 ug BSA, ~1 ng probe in 20 ul; 20 min on ice; 5% native PAGE in 0.5X TBE at 4 C; settings: protein: recombinant; tags: His; copies: 1;1; label: 32P

B1: ETV5 18-bp CBS (dsDNA)
DNA 1: GGTTATGAATGAAAAACC
DNA 2: GGTTTTTCATTCATAACC
binding result [1]: binds

B2: CBS syn (dsDNA)
DNA 1: GGGAATTAAGTTGAATGAATAGGCTGGGCC
DNA 2: GGCCCAGCCTATTCATTCAACTTAATTCCC
binding result [2]: binds
